Measurements taken from US20190241668A1 (ARGENX, published 2019).

T1: TIM-3 (T cell immunoglobulin and mucin-domain containing-3) (human, UniProt Q8TDQ0 22-200, limits assumed)
T1 construct: also called TIMD-3; HAVCR2
T1 sequence (looked up): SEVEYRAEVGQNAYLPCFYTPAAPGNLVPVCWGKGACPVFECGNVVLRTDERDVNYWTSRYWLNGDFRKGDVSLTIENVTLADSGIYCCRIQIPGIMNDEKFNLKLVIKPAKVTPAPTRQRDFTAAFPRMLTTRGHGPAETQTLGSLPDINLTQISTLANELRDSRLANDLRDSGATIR


Tests used:
[1] = target: T1, TIM-3 (T cell immunoglobulin and …); test: Biacore, Fab on TIM-3
[2] = target: T1, TIM-3 (T cell immunoglobulin and …); test: ELISA, Fab on TIM-3

Binder	koff [1]	EC50 [2]
Fab clone 2A9 (Fab, V domains shown, Llama-derived Fab from an immune library; the constant domains of the Fab are not) VH: QVQLVESGPGLVKPSQTLSLTCTVSGGSITTSDDAWSWIRQPAGKGLEWMGVIAYDGSTRYSPSLQSRTSISRDTSKNQFSLQLSSVTPEDTAVYYCARTKGVGGTWALDAWGQGTLVTVSS VL: EIVLTQSPSSVTASVGEKVTINCKSSQSVLSSSNQKNYLSWYQQRLGQSPRLLITWASTRESGVPDRFSGSGSTTDFTLTISSFQPEDAAVYYCQQGYGAPLTFGQGTKVELKR		0.0114 µg/mL
Fab clone 1A11 (Fab, V domains shown, Llama-derived Fab from an immune library; the constant domains of the Fab are not) VH: EVQLVESGGGLVQPGGSLRLSCAASGFTFSSYAMSWVRQAPGKGPEWVSHINSGGGNTKYADSVKGRFTISRDNAKNTLYLQMNTLKPEDTAVYYCAKDVSGGYYGTYALDAWGQGTQVVVSS VL: SYELTQSPSVSVALKQTAKITCGGDNIGSKSAQWYQQKPGQAPVLVIYADSRRPSGIPERFSGSNSGNTATLTISGAQAEDEADYYCQVWDSSAAVFGGGTHLTVL	2.48e-05 s⁻¹	0.01 µg/mL
Fab clone 2A2 (Fab, V domains shown, Llama-derived Fab from an immune library; the constant domains of the Fab are not) VH: EVQVQESGGGLVQPGGSLRLSCAASGFTFSSYAMSWVRQAPGKGLEWVSDINSGGGSTVYTDSVKGRFTISRDNAKNTLYLQMNSLKPDDTAVYYCATGGSYYSYRLFDYWGQGTQVTVSS VL: DIQMTQSPSSVIVSAGEKVTINCKSSQSVLDSSNQKNYLAWYQQRLGQSPRLLIYWASTRESGVPDRFSGSGSTTDFTLTISSFQPEDAAVYYCQQGYSVPVTFGQGTKVELKR	4.41e-05 s⁻¹	0.00805 µg/mL
Fab clone 2B9 (Fab, V domains shown, Llama-derived Fab from an immune library; the constant domains of the Fab are not) VH: EVQLQESGPGLVKPSQTLSLTCTVSGASVTTRYNYWSWIRQPPGKGLEWMGAITYSGSTYYSPSLKSRTSISRDTSKNQFTLQLSSVTPEDTAVYYCATEGSSSTGVSRYSFGSWGQGTQVTVSS VL: ATMLTQSPGSLSVVPGESASISCKASQSLTHTDGTTALYWLQQKPGQRPQLLIYEVSVRASGVPDRFTGSGSGSDFTLKINGVKAEDAGVYYCAQVAYYPTFGQGTKVELK	4.87e-05 s⁻¹	0.00851 µg/mL
Fab clone 2B6 (Fab, V domains shown, Llama-derived Fab from an immune library; the constant domains of the Fab are not) VH: QVQLVESGGGLVQPGGSLRLSCAASGFAFSSYDMSWVRQAPGKGLEWVSTINSGGGSTNYADSMKGRFTISRDNAKNTVYLQMNSLKPEDTAVYYCAARSPYYTRVPLYDYWGQGTQVTVSS VL: QAVVTQEPSLSVSLGGTVTLTCGLRSGSVTTSNYPGWFKQTPGQAPRTLIFGASSRHSGVPSRYSGSISGNKAALTITGAEPEDEADYYCALNKGTYTDVFGGGTKLTVL	3.64e-05 s⁻¹	0.00852 µg/mL
Fab clone 2A6 (Fab, V domains shown, Llama-derived Fab from an immune library; the constant domains of the Fab are not) VH: QVQLVESGGGLVQPGGSLRLSCAASGFTFSNYWMYWVRQAPGKGLEWVSTINTNGAITLYADNVKDRFTVSRDNAKNTLYLQMNSLKSEDTAVYYCAKVKLSGYPHPYYAMDYWGKGTLVTVSS VL: NFMLTQPPSLSGSLGQSARLTCTLGSGNSIGAHTISWYQQKAGSPPRYLLNYYSDSSNHQASGVPSRFSGSKDDSTNAGLLLISGLQPEDEADYYCAAGDGSGTVFGGGTKLTVL	0.000151 s⁻¹	0.0104 µg/mL

Second part, the binder after the results:

koff [1]	EC50 [2]	Binder
6.64e-05 s⁻¹	0.0149 µg/mL	Fab clone 2E9 (Fab, V domains shown, Llama-derived Fab from an immune library; the constant domains of the Fab are not) VH: EVQLVESGGGLVQPGGSLRLSCAASGFTFDDYTMSWVRQVPGKGLEWISGISGNGGRTDYVEPIEGRFTISRDNAKNTLYLQMNSLKSEDTAVYYCAKTSPQSLDYWGQGTQVTVSS VL: DIVMTQSPSSVTASVGEKVTINCKSSQSVVSGSNQKSYLNWYQQRPGQPPRLLIYYASTQESGIPDRFSGSGSTTDFTLTISSVQPEDAAVYYCQQAYSAPYNFGSGTRLEIK
7.62e-05 s⁻¹	0.0133 µg/mL	Fab clone 2E7 (Fab, V domains shown, Llama-derived Fab from an immune library; the constant domains of the Fab are not) VH: ELQVVESGGGLVQPGGSLRLSCAASGFTFGSYDMSWHRQAPRKGPEWVSTISAGGGRTYYADSVKGRFTISRDNAKNTLYLQMNSLKPEDTAVYFCTKIVLDSWGQGTQVTVSS VL: DVVLTQTPGSLSVVPGESASISCKASQSLIHIDGKTYLYWLLQKPGRRPELLIYQVSNHESGVPDRFTGSGSGTDFTLKISGVKAEDAGVYYCAQATYYPSFGSGTRLEIK
8.53e-05 s⁻¹	0.0181 µg/mL	Fab clone 2F8 (Fab, V domains shown, Llama-derived Fab from an immune library; the constant domains of the Fab are not) VH: EVQLVESGGGLVQPGGSLRLSCAASGFTFGSYDMSWVRQAPGKGPEWVSTISAGGGRTYYADSVKDRFTISRDNAKNTLYLQMNSLKPEDTAVYYCAKVVIDYWGQGTQVTVSS VL: DVVLTQTPGSLSVVPGESASISCKASQSLVHTDGKTYVYWLLQKPGQRPHLLIYQVSNHESGVPDRFTGSGSGTDFTLKISGVKAEDAGVYYCAQATYYPSFGSGTRLEIK
	0.121 µg/mL	Fab clone 2E2 (Fab, V domains shown, Llama-derived Fab from an immune library; the constant domains of the Fab are not) VH: QLQLVESGGGLVQPGGSLRLSCAASGFTFGSYDMSWVRQAPGKGPEWVSRITSGGGSTYADSVKGRFTISRDNAKNTLSLQMNSLKSEDTAVYYCAAGQYSDGYYPYDYWGQGTQVTVSS VL: DIVMTQSPSSLSASLGDRVTITCQASQSISSYLAWYQQKPGQGPKLLIYGASRLEPGVPSRFSGSGSGTSFTLTISGVEAEDLATYYCLQDYSWPYSFGSGTRLEIK
1.85e-05 s⁻¹	0.014 µg/mL	Fab clone 2B10 (Fab, V domains shown, Llama-derived Fab from an immune library; the constant domains of the Fab are not; also called 2610; 21310) VH: QVQLQESGPGLVKPSQTLSLTCTVSGGSITTNRYLWTWIRQTPGKGLEWVGAIAYSGRTYYSPSLKSRTSISRDTSKNQFTLQLSSVTPEDTGVYYCAHFTGWGGYYWGQGTQVTVSS VL: QSALTQPPSVSGTLGKTVTISCAGTSSDIGGYNSVSWYQQLPGTAPKLLIYEVNKRASGIPDRFSGSKSGNTASLSISGLQSEDEADYYCASYRSANNVVFGGGTKLTVL
3.72e-05 s⁻¹	0.0133 µg/mL	Fab clone 2G6 (Fab, V domains shown, Llama-derived Fab from an immune library; the constant domains of the Fab are not) VH: EVQLVESGGGLVQPGGSLRLSCAASGFTFSSYSMSWVRQAPGKGPEWVSGINTSGGTTSYAASVKGRFTVSRDNAKNTLSLQMNSLEPEDTAVYYCVKHIRWSGSNYYYYGMDYWGKGTLVTVSS VL: QAVLTQPPSVSGSPGQRFTISCTGSNRNIGNNYVNWYQQLPGTAPKLLIYSDNLRTSGVPARFSASKSGTTSSLTISGLQAEDEAVYYCSSWDDSLSGAVFGGGTHLTVL
0.000166 s⁻¹	0.00717 µg/mL	Fab clone 2D6 (Fab, V domains shown, Llama-derived Fab from an immune library; the constant domains of the Fab are not) VH: QVQLQESGGGLVQPGGSLTLSCAASGFFFSSYAMSWVRQAPGKGLEWVSSISAGGGTSYYADSVKGRFTISRDSAKNTLVLQMNSLKPEDTAVYYCAKKRQNFWSEGYDSWGQGTQVTVSS VL: HSAVTQPPSVSGSPGKAVTISCVGSSSDVGYGDYVSWYQQLPGMAPKLLIYDVEKRASGIPDRFSGSKSGNTASLTISGLQSEDEADYYCASYRSDSNFVFGGGTHLAVL
1.04e-05 s⁻¹	0.00821 µg/mL	Fab clone 2C6 (Fab, V domains shown, Llama-derived Fab from an immune library; the constant domains of the Fab are not) VH: QVQLVESGGGLVQPGGSLRLSCAASGFAFSSYDMSWVRQAPGKGPEWVSTINSGGGSTSYADSVKGRFTISRDNAKNTVYLQMNSLKPEDTAVYYCAARSLYYTRVPMYDYWGQGTQVTVSK VL: QAVVTQEPSLSVSPGGTVTLTCGLSSGSVTTNNYPGWFQQTPGQAPRTLIYSTSSRHSGVPSRFSGSISGNKAALTITGAQPEDEADYYCALDIGSYTAVFGGGTHLTVL
